Experimental data: patent US20140087995A1 (published 2014)
Numbered stars: 1 amine (or outer) side, 2 acyl side, 3 side chain; on linkers, the order of the positions; unused ones are H or OH. Bridge positions count the residues as written; N and C are the ends. Side chains are listed from the residue outwards. Ends that are not written are not given here. * marks the point of attachment. C20 diacid = O=C(O)CCCCCCCCCCCCCCCCCCC(=O)*; γGlu = O=C(O)[C@H](CCC(=O)[*:2])N[*:1]; AEEA = NCCOCCOCC(=O)O

Legend:
[1] = molecular target: T1, human calcitonin receptor (human, UniProt P30988 25-474); assay: SPA radioligand competition (125I-calcitonin), membranes of BHK cells with human calcitonin receptor
T1 construct: whole, on cells; also called hCTR; hCT
T1 sequence (looked up): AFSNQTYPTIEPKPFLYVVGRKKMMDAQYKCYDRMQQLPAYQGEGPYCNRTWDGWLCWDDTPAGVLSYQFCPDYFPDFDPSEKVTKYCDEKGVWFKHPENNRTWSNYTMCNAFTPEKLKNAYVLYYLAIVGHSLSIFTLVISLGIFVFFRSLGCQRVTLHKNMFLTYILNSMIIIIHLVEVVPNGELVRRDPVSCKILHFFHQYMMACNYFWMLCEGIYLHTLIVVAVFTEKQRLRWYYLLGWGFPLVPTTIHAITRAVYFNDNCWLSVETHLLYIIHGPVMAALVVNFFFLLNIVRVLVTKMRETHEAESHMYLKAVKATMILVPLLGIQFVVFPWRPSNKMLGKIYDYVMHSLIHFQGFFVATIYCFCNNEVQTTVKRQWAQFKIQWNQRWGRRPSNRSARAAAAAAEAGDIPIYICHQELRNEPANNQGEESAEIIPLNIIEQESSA
In short: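 BHK hCTR membranes 35 ng/μL + SPA beads 0.05 mg/well; buffer 50 mM Hepes pH 7.4, 1 mM CaCl2, 5 mM MgCl₂, 0.1% OA, 0.02% Tween20. 120 min, 25° C., shaking. Scintillation count; IC50 by one-site binding competition.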

[2] = molecular target: T1, human calcitonin receptor; assay: ratio of IC50 at human calcitonin receptor to IC50 at human amylin receptor (SPA competition assays)
In short: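 Competition binding by SPA with cell membranes (35 ng/μL) and SPA beads in 50 mM Hepes pH 7.4 with 1 mM CaCl2, 5 mM MgCl2, 0.1% OA and 0.02% Tween20. Incubated 120 min at 25 °C with shaking, then counted.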

B1: N^ε1-[2-[2-[2-[[(4S)-4-carboxy-4-(19-carboxynonadecanoylamino)butanoyl]amino]ethoxy]ethoxy]acetyl]-[His14,Arg17,Pro21,Pro27,His34]-h-amylin (peptide)
peptide: K([AEEA-γGlu-C20 diacid])CNTATCATQRLAHFLRHSSPNFGAIPSSTNVGHNTY-NH2
modifications: disulfide 2-7; N-terminus assumed
SMILES: CC[C@H](C)[C@H](NC(=O)[C@H](C)NC(=O)CNC(=O)[C@H](Cc1ccccc1)NC(=O)[C@H](CC(N)=O)NC(=O)[C@@H]1CCCN1C(=O)[C@H](CO)NC(=O)[C@H](CO)NC(=O)[C@H](Cc1c[nH]cn1)NC(=O)[C@H](CCCNC(=N)N)NC(=O)[C@H](CC(C)C)NC(=O)[C@H](Cc1ccccc1)NC(=O)[C@H](Cc1c[nH]cn1)NC(=O)[C@H](C)NC(=O)[C@H](CC(C)C)NC(=O)[C@H](CCCNC(=N)N)NC(=O)[C@H](CCC(N)=O)NC(=O)[C@@H](NC(=O)[C@H](C)NC(=O)[C@@H]1CSSC[C@H](NC(=O)[C@@H](N)CCCCNC(=O)COCCOCCNC(=O)CC[C@H](NC(=O)CCCCCCCCCCCCCCCCCCC(=O)O)C(=O)O)C(=O)N[C@@H](CC(N)=O)C(=O)N[C@@H]([C@@H](C)O)C(=O)N[C@@H](C)C(=O)N[C@@H]([C@@H](C)O)C(=O)N1)[C@@H](C)O)C(=O)N1CCC[C@H]1C(=O)N[C@@H](CO)C(=O)N[C@@H](CO)C(=O)N[C@H](C(=O)N[C@@H](CC(N)=O)C(=O)N[C@H](C(=O)NCC(=O)N[C@@H](Cc1c[nH]cn1)C(=O)N[C@@H](CC(N)=O)C(=O)N[C@H](C(=O)N[C@@H](Cc1ccc(O)cc1)C(N)=O)[C@@H](C)O)C(C)C)[C@@H](C)O
notes: also called compound 80
- IC50 [1]: 19.8 nM
- Ratio hCT/hAmylin binding [2]: 68.1

B2: N^ε1-[2-[2-[2-[[(4S)-4-carboxy-4-(19-carboxynonadecanoylamino)butanoyl]amino]ethoxy]ethoxy]acetyl]-[His14,Arg17,Pro21,Pro27]-h-amylin (peptide)
peptide: K([AEEA-γGlu-C20 diacid])CNTATCATQRLAHFLRHSSPNFGAIPSSTNVGSNTY-NH2
modifications: disulfide 2-7; N-terminus assumed
SMILES: CC[C@H](C)[C@H](NC(=O)[C@H](C)NC(=O)CNC(=O)[C@H](Cc1ccccc1)NC(=O)[C@H](CC(N)=O)NC(=O)[C@@H]1CCCN1C(=O)[C@H](CO)NC(=O)[C@H](CO)NC(=O)[C@H](Cc1c[nH]cn1)NC(=O)[C@H](CCCNC(=N)N)NC(=O)[C@H](CC(C)C)NC(=O)[C@H](Cc1ccccc1)NC(=O)[C@H](Cc1c[nH]cn1)NC(=O)[C@H](C)NC(=O)[C@H](CC(C)C)NC(=O)[C@H](CCCNC(=N)N)NC(=O)[C@H](CCC(N)=O)NC(=O)[C@@H](NC(=O)[C@H](C)NC(=O)[C@@H]1CSSC[C@H](NC(=O)[C@@H](N)CCCCNC(=O)COCCOCCNC(=O)CC[C@H](NC(=O)CCCCCCCCCCCCCCCCCCC(=O)O)C(=O)O)C(=O)N[C@@H](CC(N)=O)C(=O)N[C@@H]([C@@H](C)O)C(=O)N[C@@H](C)C(=O)N[C@@H]([C@@H](C)O)C(=O)N1)[C@@H](C)O)C(=O)N1CCC[C@H]1C(=O)N[C@@H](CO)C(=O)N[C@@H](CO)C(=O)N[C@H](C(=O)N[C@@H](CC(N)=O)C(=O)N[C@H](C(=O)NCC(=O)N[C@@H](CO)C(=O)N[C@@H](CC(N)=O)C(=O)N[C@H](C(=O)N[C@@H](Cc1ccc(O)cc1)C(N)=O)[C@@H](C)O)C(C)C)[C@@H](C)O
notes: also called compound 69
- IC50 [1]: 8.68 nM
- Ratio hCT/hAmylin binding [2]: 65.3

B3: N^ε1-[2-[2-[2-[[(4S)-4-carboxy-4-(19-carboxynonadecanoylamino)butanoyl]amino]ethoxy]ethoxy]acetyl]-[Lys14,Arg17,Pro21,Pro27,Pro31]-h-amylin (peptide)
peptide: K([AEEA-γGlu-C20 diacid])CNTATCATQRLAKFLRHSSPNFGAIPSSTPVGSNTY-NH2
modifications: disulfide 2-7; N-terminus assumed
SMILES: CC[C@H](C)[C@H](NC(=O)[C@H](C)NC(=O)CNC(=O)[C@H](Cc1ccccc1)NC(=O)[C@H](CC(N)=O)NC(=O)[C@@H]1CCCN1C(=O)[C@H](CO)NC(=O)[C@H](CO)NC(=O)[C@H](Cc1c[nH]cn1)NC(=O)[C@H](CCCNC(=N)N)NC(=O)[C@H](CC(C)C)NC(=O)[C@H](Cc1ccccc1)NC(=O)[C@H](CCCCN)NC(=O)[C@H](C)NC(=O)[C@H](CC(C)C)NC(=O)[C@H](CCCNC(=N)N)NC(=O)[C@H](CCC(N)=O)NC(=O)[C@@H](NC(=O)[C@H](C)NC(=O)[C@@H]1CSSC[C@H](NC(=O)[C@@H](N)CCCCNC(=O)COCCOCCNC(=O)CC[C@H](NC(=O)CCCCCCCCCCCCCCCCCCC(=O)O)C(=O)O)C(=O)N[C@@H](CC(N)=O)C(=O)N[C@@H]([C@@H](C)O)C(=O)N[C@@H](C)C(=O)N[C@@H]([C@@H](C)O)C(=O)N1)[C@@H](C)O)C(=O)N1CCC[C@H]1C(=O)N[C@@H](CO)C(=O)N[C@@H](CO)C(=O)N[C@H](C(=O)N1CCC[C@H]1C(=O)N[C@H](C(=O)NCC(=O)N[C@@H](CO)C(=O)N[C@@H](CC(N)=O)C(=O)N[C@H](C(=O)N[C@@H](Cc1ccc(O)cc1)C(N)=O)[C@@H](C)O)C(C)C)[C@@H](C)O
notes: also called compound 74
- IC50 [1]: 79.9 nM
- Ratio hCT/hAmylin binding [2]: 101

B4: N^ε1-[2-[2-[2-[[(4S)-4-carboxy-4-(19-carboxynonadecanoylamino)butanoyl]amino]ethoxy]ethoxy]acetyl]-[Ser14,Arg17,Pro21,Pro27,Pro31]-h-amylin (peptide)
peptide: K([AEEA-γGlu-C20 diacid])CNTATCATQRLASFLRHSSPNFGAIPSSTPVGSNTY-NH2
modifications: disulfide 2-7; N-terminus assumed
SMILES: CC[C@H](C)[C@H](NC(=O)[C@H](C)NC(=O)CNC(=O)[C@H](Cc1ccccc1)NC(=O)[C@H](CC(N)=O)NC(=O)[C@@H]1CCCN1C(=O)[C@H](CO)NC(=O)[C@H](CO)NC(=O)[C@H](Cc1c[nH]cn1)NC(=O)[C@H](CCCNC(=N)N)NC(=O)[C@H](CC(C)C)NC(=O)[C@H](Cc1ccccc1)NC(=O)[C@H](CO)NC(=O)[C@H](C)NC(=O)[C@H](CC(C)C)NC(=O)[C@H](CCCNC(=N)N)NC(=O)[C@H](CCC(N)=O)NC(=O)[C@@H](NC(=O)[C@H](C)NC(=O)[C@@H]1CSSC[C@H](NC(=O)[C@@H](N)CCCCNC(=O)COCCOCCNC(=O)CC[C@H](NC(=O)CCCCCCCCCCCCCCCCCCC(=O)O)C(=O)O)C(=O)N[C@@H](CC(N)=O)C(=O)N[C@@H]([C@@H](C)O)C(=O)N[C@@H](C)C(=O)N[C@@H]([C@@H](C)O)C(=O)N1)[C@@H](C)O)C(=O)N1CCC[C@H]1C(=O)N[C@@H](CO)C(=O)N[C@@H](CO)C(=O)N[C@H](C(=O)N1CCC[C@H]1C(=O)N[C@H](C(=O)NCC(=O)N[C@@H](CO)C(=O)N[C@@H](CC(N)=O)C(=O)N[C@H](C(=O)N[C@@H](Cc1ccc(O)cc1)C(N)=O)[C@@H](C)O)C(C)C)[C@@H](C)O
notes: also called compound 73
- IC50 [1]: 5.38 nM
- Ratio hCT/hAmylin binding [2]: 51.7

B5: N^ε1-[2-[2-[2-[[(4S)-4-carboxy-4-(19-carboxynonadecanoylamino)butanoyl]amino]ethoxy]ethoxy]acetyl]-[Thr14,Arg17,Pro21,Pro27,Pro31]-h-amylin (peptide)
peptide: K([AEEA-γGlu-C20 diacid])CNTATCATQRLATFLRHSSPNFGAIPSSTPVGSNTY-NH2
modifications: disulfide 2-7; N-terminus assumed
SMILES: CC[C@H](C)[C@H](NC(=O)[C@H](C)NC(=O)CNC(=O)[C@H](Cc1ccccc1)NC(=O)[C@H](CC(N)=O)NC(=O)[C@@H]1CCCN1C(=O)[C@H](CO)NC(=O)[C@H](CO)NC(=O)[C@H](Cc1c[nH]cn1)NC(=O)[C@H](CCCNC(=N)N)NC(=O)[C@H](CC(C)C)NC(=O)[C@H](Cc1ccccc1)NC(=O)[C@@H](NC(=O)[C@H](C)NC(=O)[C@H](CC(C)C)NC(=O)[C@H](CCCNC(=N)N)NC(=O)[C@H](CCC(N)=O)NC(=O)[C@@H](NC(=O)[C@H](C)NC(=O)[C@@H]1CSSC[C@H](NC(=O)[C@@H](N)CCCCNC(=O)COCCOCCNC(=O)CC[C@H](NC(=O)CCCCCCCCCCCCCCCCCCC(=O)O)C(=O)O)C(=O)N[C@@H](CC(N)=O)C(=O)N[C@@H]([C@@H](C)O)C(=O)N[C@@H](C)C(=O)N[C@@H]([C@@H](C)O)C(=O)N1)[C@@H](C)O)[C@@H](C)O)C(=O)N1CCC[C@H]1C(=O)N[C@@H](CO)C(=O)N[C@@H](CO)C(=O)N[C@H](C(=O)N1CCC[C@H]1C(=O)N[C@H](C(=O)NCC(=O)N[C@@H](CO)C(=O)N[C@@H](CC(N)=O)C(=O)N[C@H](C(=O)N[C@@H](Cc1ccc(O)cc1)C(N)=O)[C@@H](C)O)C(C)C)[C@@H](C)O
notes: also called compound 75
- IC50 [1]: 60.9 nM
- Ratio hCT/hAmylin binding [2]: 91.4

B6: N^ε1-[(4S)-4-carboxy-4-(19-carboxynonadecanoylamino)butanoyl]-[Ala14,Arg17,Pro21,Pro27,His34]-h-amylin (peptide)
peptide: K([γGlu-C20 diacid])CNTATCATQRLAAFLRHSSPNFGAIPSSTNVGHNTY-NH2
modifications: disulfide 2-7; N-terminus assumed
SMILES: CC[C@H](C)[C@H](NC(=O)[C@H](C)NC(=O)CNC(=O)[C@H](Cc1ccccc1)NC(=O)[C@H](CC(N)=O)NC(=O)[C@@H]1CCCN1C(=O)[C@H](CO)NC(=O)[C@H](CO)NC(=O)[C@H](Cc1c[nH]cn1)NC(=O)[C@H](CCCNC(=N)N)NC(=O)[C@H](CC(C)C)NC(=O)[C@H](Cc1ccccc1)NC(=O)[C@H](C)NC(=O)[C@H](C)NC(=O)[C@H](CC(C)C)NC(=O)[C@H](CCCNC(=N)N)NC(=O)[C@H](CCC(N)=O)NC(=O)[C@@H](NC(=O)[C@H](C)NC(=O)[C@@H]1CSSC[C@H](NC(=O)[C@@H](N)CCCCNC(=O)CC[C@H](NC(=O)CCCCCCCCCCCCCCCCCCC(=O)O)C(=O)O)C(=O)N[C@@H](CC(N)=O)C(=O)N[C@@H]([C@@H](C)O)C(=O)N[C@@H](C)C(=O)N[C@@H]([C@@H](C)O)C(=O)N1)[C@@H](C)O)C(=O)N1CCC[C@H]1C(=O)N[C@@H](CO)C(=O)N[C@@H](CO)C(=O)N[C@H](C(=O)N[C@@H](CC(N)=O)C(=O)N[C@H](C(=O)NCC(=O)N[C@@H](Cc1c[nH]cn1)C(=O)N[C@@H](CC(N)=O)C(=O)N[C@H](C(=O)N[C@@H](Cc1ccc(O)cc1)C(N)=O)[C@@H](C)O)C(C)C)[C@@H](C)O
notes: also called compound 93
- IC50 [1]: 17.8 nM
- Ratio hCT/hAmylin binding [2]: 101
